Data reported in patent US20250064952A1 (ACCELERON PHARMA, published 2025).

B1: ActRIIB-Fc homodimer (Fc fusion, human, UniProt Q13705 19-137, looked up, not shown: a dimerising Fc or GST)
chain: SGRGEAETRECIYYNANWELERTNQSGLERCEGEQDKRLHCYASWRNSSGTIELVKKGCWLDDFNCYDRQECVATEENPQVYFCCCEGNFCNERFTHLPEAGGPEVTYEPPPTAPTLLT
notes: extracellular domain; also called unmodified ActRIIB-Fc homodimer; ActRIIB-Fc:ActRIIB-Fc homodimer
B2: GDF11 (ligand, UniProt O95390 299-407, looked up)
chain: NLGLDCDEHSSESRCCRYPLTVDFEAFGWDWIIAPKRYKANYCSGQCEYMFMQKYPHTHLVQQANPRGSAGPCCTPTKMSPINMLYFNDKQQIIYGKIPGMVVDRCGCS
notes: also called BMP11
B3: BMP10 (ligand, UniProt O95393 317-424, looked up)
chain: NAKGNYCKRTPLYIDFKEIGWDSWIIAPPGYEAYECRGVCNYPLAEHLTPTKHAIIQALVHLKNSQKASKACCVPTKLEPISILYLDKGVVTYKFKYEGMAVSECGCR
B4: BMP9 (ligand, UniProt Q9UK05 320-429, looked up)
chain: SAGAGSHCQKTSLRVNFEDIGWDSWIIAPKEYEAYECKGGCFFPLADDVTPTKHAIVQTLVHLKFPTKVGKACCVPTKLSPISVLYKDDMGVPTLKYHYEGMSVAECGCR
notes: also called GDF2
B5: activin A (ligand, UniProt P08476 311-426, looked up)
chain: GLECDGKVNICCKKQFFVSFKDIGWNDWIIAPSGYHANYCEGECPSHIAGTSGSSLSFHSTVINHYRMRGHSPFANLKSCCVPTKLRPMSMLYYDDGQNIIKKDIQNMIVEECGCS
B6: ActRIIB-Fc:ActRIIB(L79E)-Fc heterodimer (Fc fusion)
chain 1: GRGEAETRECIYYNANWELERTNQSGLERCEGEQDKRLHCYASWRNSSGTIELVKKGCWLDDFNCYDRQECVATEENPQVYFCCCEGNFCNERFTHLPEAGGPEVTYEPPPTAPTGGGTHTCPPCPAPELLGGPSVFLFPPKPKDTLMISRTPEVTCVVVDVSHEDPEVKFNWYVDGVEVHNAKTKPREEQYNSTYRVVSVLTVLHQDWLNGKEYKCKVSNKALPAPIEKTISKAKGQPREPQVYTLPPSRKEMTKNQVSLTCLVKGFYPSDIAVEWESNGQPENNYKTTPPVLKSDGSFFLYSKLTVDKSRWQQGNVFSCSVMHEALHNHYTQKSLSLSPGK
chain 2: GRGEAETRECIYYNANWELERTNQSGLERCEGEQDKRLHCYASWRNSSGTIELVKKGCWEDDFNCYDRQECVATEENPQVYFCCCEGNFCNERFTHLPEAGGPEVTYEPPPTAPTGGGTHTCPPCPAPELLGGPSVFLFPPKPKDTLMISRTPEVTCVVVDVSHEDPEVKFNWYVDGVEVHNAKTKPREEQYNSTYRVVSVLTVLHQDWLNGKEYKCKVSNKALPAPIEKTISKAKGQPREPQVYTLPPSREEMTKNQVSLTCLVKGFYPSDIAVEWESNGQPENNYDTTPPVLDSDGSFFLYSDLTVDKSRWQQGNVFSCSVMHEALHNHYTQKSLSLSPG
notes: also called ActRIIB-Fc:ActRIIB(L79E)-Fc heteromer
B7: GDF3 (ligand, UniProt Q9NR23 251-364, looked up)
chain: AAIPVPKLSCKNLCHRHQLFINFRDLGWHKWIIAPKGFMANYCHGECPFSLTISLNSSNYAFMQALMHAVDPEIPQAVCIPTKLSPISMLYQDNNDNVILRHYEDMVVDECGCG
notes: also called VGR2

Assays:
[1] = molecular target: T1, BMP6 (UniProt P22004 382-513, limits assumed); assay: SPR (Biacore), anti-Fc capture, ligand in flow
T1 sequence (looked up): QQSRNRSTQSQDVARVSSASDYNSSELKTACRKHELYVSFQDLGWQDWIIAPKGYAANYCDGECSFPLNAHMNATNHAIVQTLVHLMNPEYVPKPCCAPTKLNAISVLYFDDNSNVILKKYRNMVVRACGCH
Procedure: (§1) A Biacore™-based binding assay was used to compare ligand binding selectivity of the ActRIIB-Fc:ALK4-Fc heterodimeric complex described above with that of ActRIIB-Fc and ALK4-Fc homodimer complexes. The ActRIIB-Fc:ALK4-Fc heterodimer, ActRIIB-Fc homodimer, and ALK4-Fc homodimer were independently captured onto the system using an anti-Fc antibody. Ligands were injected and allowed to flow over the captured receptor protein. Results are summarized in the table below, in which ligand off-rates (kd) most indicative of effective ligand traps are denoted by bold font.

[2] = molecular target: T2, activin AC (UniProt P08476 311-426; P55103 237-352); assay: SPR (Biacore), anti-Fc capture, ligand in flow
T2 construct: Heterodimer of beta A and beta C
T2 sequence (looked up) 1: B5 chain
T2 sequence (looked up) 2: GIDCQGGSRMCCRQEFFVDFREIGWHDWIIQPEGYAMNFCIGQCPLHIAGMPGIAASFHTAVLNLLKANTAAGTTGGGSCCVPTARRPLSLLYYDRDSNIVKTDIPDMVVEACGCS
Procedure: (§2) A Biacore™-based binding assay was used to compare ligand binding selectivity of the ActRIIB-Fc:ALK7-Fc heterodimeric complex described above with that of ActRIIB-Fc and ALK7-Fc homodimeric complexes. The ActRIIB-Fc:ALK7-Fc heterodimer, ActRIIB-Fc homodimer, and ALK7-Fc homodimer were independently captured onto the system using an anti-Fc antibody. Ligands were injected and allowed to flow over the captured receptor protein. Results are summarized in the table below, in which ligand off-rates (kd) most indicative of effective ligand traps are denoted by bold font.

[3] = molecular target: T3, BMP5 (UniProt P22003 317-454, limits assumed); assay: SPR (Biacore), anti-Fc capture, ligand in flow
T3 sequence (looked up): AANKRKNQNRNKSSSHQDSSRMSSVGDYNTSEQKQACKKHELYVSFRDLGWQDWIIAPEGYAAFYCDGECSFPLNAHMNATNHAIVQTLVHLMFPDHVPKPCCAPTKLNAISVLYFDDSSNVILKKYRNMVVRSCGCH
Procedure: as §2

[4] = molecular target: T1, BMP6; assay: SPR (Biacore), anti-Fc capture, ligand in flow; remark: listed apart in the source
Procedure: as §2

[5] = molecular target: T1, BMP6; assay: SPR (Biacore), 37 C, anti-Fc capture, ligand in flow
Procedure: (§3) A Biacore™-based binding assay was used to compare the ligand binding kinetics of an ActRIIB-Fc:ActRIIB(L79E)-Fc heterodimer with those of unmodified ActRIIB-Fc homodimer. Fusion proteins were captured onto the system using an anti-Fc antibody. Ligands were then injected and allowed to flow over the captured receptor protein at 37° C. Results are summarized in the table below, in which ligand off-rates (kd) most indicative of effective ligand traps are denoted in bold.

[6] = molecular target: B1; assay: SPR (Biacore), anti-Fc capture, ligand in flow
Procedure: as §1

[7] = molecular target: B1; assay: SPR (Biacore), anti-Fc capture, ligand in flow; remark: listed apart in the source
Procedure: as §2

[8] = molecular target: B1; assay: SPR (Biacore), 37 C, anti-Fc capture, ligand in flow
Procedure: as §3

[9] = molecular target: B5; assay: as above
Procedure: as §3

[10] = molecular target: B4; assay: as above
Procedure: as §3

[11] = molecular target: B3; assay: as above
Procedure: as §3

[12] = molecular target: T4, activin B (UniProt P09529 293-407); assay: as above
T4 sequence (looked up): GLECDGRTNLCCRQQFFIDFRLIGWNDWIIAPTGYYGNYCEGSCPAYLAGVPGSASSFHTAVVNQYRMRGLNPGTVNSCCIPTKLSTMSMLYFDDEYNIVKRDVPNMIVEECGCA
Procedure: as §3

[13] = molecular target: B7; assay: as above
Procedure: as §3

[14] = molecular target: T5, GDF8 (UniProt O14793 267-375); assay: as above
T5 construct: also called myostatin
T5 sequence (looked up): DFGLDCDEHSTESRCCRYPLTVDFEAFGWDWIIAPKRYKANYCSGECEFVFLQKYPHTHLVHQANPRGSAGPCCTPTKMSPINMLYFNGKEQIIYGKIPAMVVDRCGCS
Procedure: as §3

[15] = molecular target: B2; assay: as above
Procedure: as §3

Binder: B1
- Kd [1]: 190 pM
- koff [1]: 0.0068 s⁻¹
- kon [1]: 3.2e+07 M⁻¹ s⁻¹
- Kd [2]: 160 pM
- koff [2]: 0.0031 s⁻¹
- kon [2]: 2e+07 M⁻¹ s⁻¹
- Kd [3]: 2900 pM
- koff [3]: 0.075 s⁻¹
- kon [3]: 2.6e+07 M⁻¹ s⁻¹
- Kd [4]: 160 pM
- koff [4]: 0.0039 s⁻¹
- kon [4]: 2.4e+07 M⁻¹ s⁻¹
- Kd [5]: 56 pM
- koff [5]: 0.0074 s⁻¹
- kon [5]: 1.3e+08 M⁻¹ s⁻¹

Binder: B2
- Kd [6]: 2 pM
- koff [6]: 0.00011 s⁻¹
- kon [6]: 5e+07 M⁻¹ s⁻¹
- Kd [7]: 2 pM
- koff [7]: 0.00015 s⁻¹
- kon [7]: 9.6e+07 M⁻¹ s⁻¹
- Kd [8]: 4 pM
- koff [8]: 0.00017 s⁻¹
- kon [8]: 4.1e+07 M⁻¹ s⁻¹

Binder: B3
- Kd [6]: 11 pM
- koff [6]: 0.00026 s⁻¹
- kon [6]: 2.3e+07 M⁻¹ s⁻¹
- Kd [7]: 25 pM
- koff [7]: 0.00015 s⁻¹
- kon [7]: 5.9e+06 M⁻¹ s⁻¹
- Kd [8]: 4 pM
- koff [8]: 0.0002 s⁻¹
- kon [8]: 5.1e+07 M⁻¹ s⁻¹

Binder: B4
- Kd [6]: 77 pM
- koff [6]: 0.0011 s⁻¹
- kon [6]: 1.4e+07 M⁻¹ s⁻¹
- Kd [7]: 10 pM
- koff [7]: 0.001 s⁻¹
- kon [7]: 1.2e+08 M⁻¹ s⁻¹
- Kd [8]: 250 pM
- koff [8]: 0.0013 s⁻¹
- kon [8]: 5e+06 M⁻¹ s⁻¹

Binder: B5
- Kd [6]: 19 pM
- koff [6]: 0.00023 s⁻¹
- kon [6]: 1.2e+07 M⁻¹ s⁻¹
- Kd [7]: 11 pM
- koff [7]: 0.00014 s⁻¹
- kon [7]: 1.3e+07 M⁻¹ s⁻¹
- Kd [8]: 25 pM
- koff [8]: 0.00019 s⁻¹
- kon [8]: 7.4e+06 M⁻¹ s⁻¹

Binder: B6
- Kd [9]: 170 pM
- fold faster off-rate vs ActRIIB-Fc homodimer [9]: ~10 fold
- koff [9]: 0.0015 s⁻¹
- kon [9]: 8.8e+06 M⁻¹ s⁻¹
- Kd [10]: > 2800 pM
- Kd [11]: 42 pM
- fold faster off-rate vs ActRIIB-Fc homodimer [11]: ~10 fold
- koff [11]: 0.002 s⁻¹
- kon [11]: 4.8e+07 M⁻¹ s⁻¹
- Kd [12]: 25 pM
- koff [12]: 0.00021 s⁻¹
- kon [12]: 8.3e+06 M⁻¹ s⁻¹
- Kd [13]: 10000 pM
- koff [13]: 0.0059 s⁻¹
- kon [13]: 580000 M⁻¹ s⁻¹
- Kd [14]: 150 pM
- koff [14]: 0.0005 s⁻¹
- kon [14]: 3.4e+06 M⁻¹ s⁻¹
- Kd [15]: 9 pM
- koff [15]: 0.00036 s⁻¹
- kon [15]: 4e+07 M⁻¹ s⁻¹
- Kd [5]: 56 pM
- koff [5]: 0.018 s⁻¹
- kon [5]: 3.3e+08 M⁻¹ s⁻¹

Binder: B7
- Kd [6]: 1500 pM
- koff [6]: 0.0022 s⁻¹
- kon [6]: 1.4e+06 M⁻¹ s⁻¹
- Kd [7]: 1500 pM
- koff [7]: 0.0022 s⁻¹
- kon [7]: 1.4e+06 M⁻¹ s⁻¹
- Kd [8]: 1500 pM
- koff [8]: 0.0022 s⁻¹
- kon [8]: 1.4e+06 M⁻¹ s⁻¹
